Here are results for five substances from publication PMC8592465.

Assay [1] deals with GfcC (expressed from pMCSG7 without signal sequence, His6-tag removed) (Escherichia coli O127:H6 str. E2348/69) (UniProt P75883). The assay is described as follows: ITC; 100 μM GfcB injected into 10 μM GfcC, 25°C, 20 mM Tris-HCl pH 7.5, 150 mM NaCl; 1:1 model. For orientation: In ITC the heat of successive injections is recorded.
Assay [2] addresses GfcD-biotin (from pBH31, His-tag removed, biotinylated) (Escherichia coli O127:H6 str. E2348/69) (UniProt P75882). The assay is described as follows: BLI; biotinylated GfcD on streptavidin sensor, GfcB, GfcC or GfcBC in solution 3.75-60 μM, 25°C, 20 mM Tris-HCl pH 7.5, 150 mM NaCl, 0.1 mg/mL BSA, 0.02% DDM; 1:1 model. (Biolayer interferometry detects binding as a change in optical thickness at a sensor tip.)

The target of assay [3] is GfcC-biotin (from pMCSG7, His6-tag removed, biotinylated) (Escherichia coli O127:H6 str. E2348/69) (UniProt P75883). The assay is described as follows: BLI; biotinylated GfcC on streptavidin sensor, GfcB (C-terminal His6, pETBlue2) in solution 0.1-1.6 μM, 25°C, 20 mM Tris-HCl pH 7.5, 150 mM NaCl, 0.1 mg/mL BSA; fit 1:1 and 1:1 with conformational change.
Assay [4] addresses GfcD (expressed from pBH31, residues 22-698, His-tag removed by TEV) (Escherichia coli O127:H6 str. E2348/69) (UniProt P75882). The assay is described as follows: ITC; 160 μM GfcB-GfcC complex injected into 20 μM GfcD, 25°C, 20 mM Tris-HCl pH 7.5, 150 mM NaCl, 0.02% DDM; 1:1 model, n held at 1.0.
The target of assay [5] is GfcB-biotin (from pMCSG7, His6-tag removed, biotinylated) (Escherichia coli O127:H6 str. E2348/69) (UniProt P75884). The assay is described as follows: BLI; biotinylated GfcB on streptavidin sensor, GfcC in solution 0.2-1.6 μM, 25°C, 20 mM Tris-HCl pH 7.5, 150 mM NaCl, 0.1 mg/mL BSA; fit 1:1 and 1:1 with conformational change.
Assay [6] has as its target His6-GfcB (from pMCSG7, tag kept) (Escherichia coli O127:H6 str. E2348/69) (UniProt P75884). Nature of the assay: cross-linking; purified proteins mixed at 5 μM in 20 mM Hepes, 150 mM NaCl, 0.06% DDM pH 7.5, cross-linked with DSP 1 hour at room temperature, SDS-PAGE, blots with anti-polyhistidine and anti-GfcC.

pKd: −log10 of the molar value.

Broadly, the pKd is the negative decadic logarithm of the Kd, by convention in mol/L. Read a high pKd as a small Kd. As a reminder, the stoichiometry N is the number of molecules, sites or subunits per partner or assembly. Broadly, the koff is a measure of how fast the partners let go of each other. Higher therefore signals a short-lived complex. The kon is a measure of how fast the partners come together. Low readings indicate slow association, high ones fast association. Take “GfcB (expressed from pMCSG7 without signal sequence, His6-tag removed) (from UniProt P75884 16-214) (natural protein)”: in assay [1], the pKd is 7.00, the dH was -6.92 kcal/mol and the stoichiometry N turned out to be 1.01. Besides, in assay [2], the pKd is 4.85, the koff came out at 0.00926 s⁻¹ and the kon was found to be 652 M⁻¹ s⁻¹.
In assay [3], “GfcB with C-terminal His6-tag expressed from pETBlue2(gfcB) (from UniProt P75884 16-214) (natural protein)” had a KD (1:1 with conformational change, binding step) of 407 nM; a pKd of 6.76; a ka1 (1:1 with conformational change, binding step) of 80400 M⁻¹ s⁻¹; a kd1 (1:1 with conformational change, binding step) of 0.0328 s⁻¹. In assay [3], this substance had a kd2 (1:1 with conformational change, conformational step) of 0.0107 s⁻¹; a koff of 0.0126 s⁻¹; a kon of 71700 M⁻¹ s⁻¹.
Regarding “GfcB-GfcC heterodimer (from UniProt P75884 16-214; P75883 23-248) (complex)”, in assay [4], the pKd is 4.55 and the dH is -7.24 kcal/mol. In assay [2], this substance gave a pKd of 5.04, a koff of 0.00716 s⁻¹ and a kon of 781 M⁻¹ s⁻¹.
In assay [5], “GfcC (expressed from pMCSG7 without signal sequence, His6-tag removed) (from UniProt P75883 23-248) (natural protein)” showed a KD (1:1 with conformational change, binding step) of 1010 nM; a pKd of 6.43; a ka1 (1:1 with conformational change, binding step) of 59900 M⁻¹ s⁻¹; a kd1 (1:1 with conformational change, binding step) of 0.0603 s⁻¹. Further, in assay [5], the kd2 (1:1 with conformational change, conformational step) is 0.015 s⁻¹; the koff was found to be 0.0196 s⁻¹; the kon turned out to be 52300 M⁻¹ s⁻¹. Besides, in assay [2], the pKd is 3.59, the koff is 0.0286 s⁻¹ and the kon came out at 111 M⁻¹ s⁻¹.
“His6-GfcB (from pMCSG7, tag kept) (from UniProt P75884 16-214) (natural protein)”: the stoichiometry N in assay [6] was determined as 2.
